Test results reported in US20260265379A1 (IMCHECK THERAPEUTICS, published 2026).

Assays:
recombinant human BTN3A1 = biological target: T1, recombinant human BTN3A1 (human, UniProt O00481 30-254); experiment: SPR
T1 construct: Soluble form of the antigen used in SPR; also called rhBTN3A1; recombinant BTN3A1 protein
Method: (§1) SPR measures the interactions between two or more biomolecules. In capture kinetics analysis, an antibody is immobilized onto a gold-plated prism. The immobilized antibody is referred to as the ligand. An injection of antigen, referred to as the analyte, is carried out, often as a concentration series. The captured analytes are removed from the sensor chip surface using a regenerating agent, for example a low pH or high ionic strength solution. If investigating binding to several analytes, the antibodies are recaptured from solution before each analyte titration series. The instrument records the changes in refractive indexes (due to the accumulation or depletion of mass) in time and plots the results as sensorgrams.
(§2) Affinity measurements with respect to BTN3A, PD-1 and PD-L1 were performed by SPR technology, for instance in a Carterra LSA Platform instrument using a soluble form of the antigen as the analyte and the antibody as the ligand. Binding was also assessed through in cellulo binding assays, on cell lines (e.g. HEK293T cells) genetically modified to express the targets of interest or genetically modified to extinct target expression.
(§3) The 69 produced bsAbs and control mAbs were also evaluated for their binding affinity to recombinant proteins by SPR assays. The equilibrium dissociation constant (KD) was then calculated for constructs showing detectable binding.

recombinant human PD-1 = biological target: T2, recombinant human PD-1 (human, UniProt Q15116 25-167, limits assumed); experiment: SPR
T2 construct: Soluble antigen in SPR; also called rhPD-1
Method: as §1, §2, §3

[1] = biological target: T3, BTN3A1 at the surface of HEK-BTN3A1 cells (human, UniProt O00481 30-513); experiment: flow cytometry, HEK-BTN3A1 cells
T3 construct: HEK 293T BTN2A/BTN3A KO cells transduced with a BTN3A1 expressing vector

[2] = biological target: T4, PD-1 at the surface of Jurkat-PD-1 cells (human, UniProt Q15116 25-288); experiment: flow cytometry, Jurkat-PD-1 cells
T4 construct: whole, on cells
T4 sequence (Q15116 25-288): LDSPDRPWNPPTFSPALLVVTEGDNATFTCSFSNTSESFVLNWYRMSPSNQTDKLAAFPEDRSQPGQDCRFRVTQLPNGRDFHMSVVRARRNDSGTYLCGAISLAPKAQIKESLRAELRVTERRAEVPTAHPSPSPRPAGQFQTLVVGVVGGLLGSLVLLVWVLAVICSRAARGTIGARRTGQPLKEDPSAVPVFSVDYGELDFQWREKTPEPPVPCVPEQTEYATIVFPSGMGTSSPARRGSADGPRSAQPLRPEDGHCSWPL

T1 sequence (O00481 30-254 limits assumed): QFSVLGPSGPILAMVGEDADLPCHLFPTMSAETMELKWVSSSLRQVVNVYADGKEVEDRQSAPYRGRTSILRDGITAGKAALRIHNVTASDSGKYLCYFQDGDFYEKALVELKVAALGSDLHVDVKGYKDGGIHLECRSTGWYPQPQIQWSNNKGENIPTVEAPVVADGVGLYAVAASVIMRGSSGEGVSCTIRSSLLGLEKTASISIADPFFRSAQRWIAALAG
T2 sequence (Q15116 25-167 limits assumed): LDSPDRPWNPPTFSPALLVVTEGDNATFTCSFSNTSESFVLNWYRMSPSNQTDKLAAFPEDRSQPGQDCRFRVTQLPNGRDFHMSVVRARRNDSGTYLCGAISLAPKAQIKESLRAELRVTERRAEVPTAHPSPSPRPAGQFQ
T3 sequence (O00481 30-513 limits assumed): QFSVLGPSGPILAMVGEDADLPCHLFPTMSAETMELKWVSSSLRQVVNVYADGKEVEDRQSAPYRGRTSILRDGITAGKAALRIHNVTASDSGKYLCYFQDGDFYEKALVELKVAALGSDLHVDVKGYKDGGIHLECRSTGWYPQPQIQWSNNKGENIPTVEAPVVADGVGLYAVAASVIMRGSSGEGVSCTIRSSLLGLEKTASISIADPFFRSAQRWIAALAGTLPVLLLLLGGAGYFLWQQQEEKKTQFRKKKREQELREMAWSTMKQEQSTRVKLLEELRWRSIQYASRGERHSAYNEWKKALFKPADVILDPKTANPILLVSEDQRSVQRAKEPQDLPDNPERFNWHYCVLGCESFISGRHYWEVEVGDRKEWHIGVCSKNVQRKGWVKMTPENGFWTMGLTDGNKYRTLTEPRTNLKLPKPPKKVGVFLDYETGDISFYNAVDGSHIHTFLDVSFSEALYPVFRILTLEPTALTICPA

| Binder | Kd (recombinant human BTN3A1) [nM] | Kd (recombinant human PD-1) [nM] | MFI at 10 nM [1] [MFI] | MFI at 100 nM [1] [MFI] | MFI at 10 nM [2] [MFI] | MFI at 100 nM [2] [MFI] |
| --- | --- | --- | --- | --- | --- | --- |
| bsAb021 (bispecific antibody, IgG anti-PD-1, scFv anti-BTN3A) heavy: QVQLVQSGAEVKKPGASVKLSCKASGYIFTRYYMYWVKQRPGQGLEWIGEINPNNGGTKFNEKFKNRATLTVDKSISTAYMELSRLRSDDTAVYYCSREDDYDGTPFAMDYWGQGTLVTVSSGGGGSGGGGSGGGGSGGGGSDIQMTQSPSSLSASVGDRVTITCHASQNINVWLSWYQQKPGKAPKLLIYKASNLHTGVPSRFTGSGSGTDFTFTISSLQPEDIATYYCQQGQTYPYTFGQGTKLEIKGGGGSGGGGSGGGGSGGGGSQVQLVQSGVEVKKPGASVKVSCKASGYTFTNYYMYWVRQAPGQGLEWMGGINPSNGGTNFNEKFKNRVTLTTDSSTTTAYMELKSLQFDDTAVYYCARRDYRFDMGFDYWGQGTTVTVSSASTKGPSVFPLAPSSKSTSGGTAALGCLVKDYFPEPVTVSWNSGALTSGVHTFPAVLQSSGLYSLSSVVTVPSSSLGTQTYICNVNHKPSNTKVDKRVEPKSCDKTHTCPPCPAPEFEGGPSVFLFPPKPKDTLMISRTPEVTCVVVDVSHEDPEVKFNWYVDGVEVHNAKTKPREEQYNSTYRVVSVLTVLHQDWLNGKEYKCKVSNKALPASIEKTISKAKGQPREPQVYTLPPSREEMTKNQVSLTCLVKGFYPSDIAVEWESNGQPENNYKTTPPVLDSDGSFFLYSKLTVDKSRWQQGNVFSCSVMHEALHNHYTQKSLSLSPG light: EIVLTQSPATLSLSPGERATLSCRASKGVSTSGYSYLHWYQQKPGQAPRLLIYLASYLESGVPARFSGSGSGTDFTLTISSLEPEDFAVYYCQHSRDLPLTFGGGTKVEIKRTVAAPSVFIFPPSDEQLKSGTASVVCLLNNFYPREAKVQWKVDNALQSGNSQESVTEQDSKDSTYSLSSTLTLSKADYEKHKVYACEVTHQGLSSPVTKSFNRGEC | 0.068 | 1.5 | 816000 | 944000 | 186000 | 275000 |
| bsAb039 (bispecific antibody, one Fab arm anti-PD-1, two scFv anti-BTN3A; not shown: IgG1 CH1-hinge-CH2-CH3; CH2-CH3 (Fc)) heavy (part 1 of 2): QVQLVQSGVEVKKPGASVKVSCKASGYTFTNYYMYWVRQAPGQGLEWMGGINPSNGGTNFNEKFKNRVTLTTDSSTTTAYMELKSLQFDDTAVYYCARRDYRFDMGFDYWGQGTTVTVSS heavy (part 2 of 2): GGGGSGGGGSGGGGSGGGGSDIQMTQSPSSLSASVGDRVTITCHASQNINVWLSWYQQKPGKAPKLLIYKASNLHTGVPSRFTGSGSGTDFTFTISSLQPEDIATYYCQQGQTYPYTFGQGTKLEIKGGGGSGGGGSGGGGSGGGGSQVQLVQSGAEVKKPGASVKLSCKASGYIFTRYYMYWVKQRPGQGLEWIGEINPNNGGTKFNEKFKNRATLTVDKSISTAYMELSRLRSDDTAVYYCSREDDYDGTPFAMDYWGQGTLVTVSS heavy: GGGGSGGGGSGGGGSGGGGSDIQMTQSPSSLSASVGDRVTITCHASQNINVWLSWYQQKPGKAPKLLIYKASNLHTGVPSRFTGSGSGTDFTFTISSLQPEDIATYYCQQGQTYPYTFGQGTKLEIKGGGGSGGGGSGGGGSGGGGSQVQLVQSGAEVKKPGASVKLSCKASGYIFTRYYMYWVKQRPGQGLEWIGEINPNNGGTKFNEKFKNRATLTVDKSISTAYMELSRLRSDDTAVYYCSREDDYDGTPFAMDYWGQGTLVTVSS light: EIVLTQSPATLSLSPGERATLSCRASKGVSTSGYSYLHWYQQKPGQAPRLLIYLASYLESGVPARFSGSGSGTDFTLTISSLEPEDFAVYYCQHSRDLPLTFGGGTKVEIKRTVAAPSVFIFPPSDEQLKSGTASVVCLLNNFYPREAKVQWKVDNALQSGNSQESVTEQDSKDSTYSLSSTLTLSKADYEKHKVYACEVTHQGLSSPVTKSFNRGEC | 0.187 | 2.1 | 1.14e+06 | 1.81e+06 | 294000 | 283000 |
| bsAb053 (bispecific antibody, IgG anti-PD-1, one scFv anti-BTN3A; not shown: IgG1 CH1-hinge-CH2-CH3) heavy (part 1 of 2): QVQLVQSGVEVKKPGASVKVSCKASGYTFTNYYMYWVRQAPGQGLEWMGGINPSNGGTNFNEKFKNRVTLTTDSSTTTAYMELKSLQFDDTAVYYCARRDYRFDMGFDYWGQGTTVTVSS heavy (part 2 of 2): GGGGSGGGGSGGGGSGGGGSQVQLVQSGAEVKKPGASVKLSCKASGYIFTRYYMYWVKQRPGQGLEWIGEINPNNGGTKFNEKFKNRATLTVDKSISTAYMELSRLRSDDTAVYYCSREDDYDGTPFAMDYWGQGTLVTVSSGGGGSGGGGSGGGGSGGGGSDIQMTQSPSSLSASVGDRVTITCHASQNINVWLSWYQQKPGKAPKLLIYKASNLHTGVPSRFTGSGSGTDFTFTISSLQPEDIATYYCQQGQTYPYTFGQGTKLEIK heavy: QVQLVQSGVEVKKPGASVKVSCKASGYTFTNYYMYWVRQAPGQGLEWMGGINPSNGGTNFNEKFKNRVTLTTDSSTTTAYMELKSLQFDDTAVYYCARRDYRFDMGFDYWGQGTTVTVSS light: EIVLTQSPATLSLSPGERATLSCRASKGVSTSGYSYLHWYQQKPGQAPRLLIYLASYLESGVPARFSGSGSGTDFTLTISSLEPEDFAVYYCQHSRDLPLTFGGGTKVEIKRTVAAPSVFIFPPSDEQLKSGTASVVCLLNNFYPREAKVQWKVDNALQSGNSQESVTEQDSKDSTYSLSSTLTLSKADYEKHKVYACEVTHQGLSSPVTKSFNRGEC | 0.393 | 0.984 | 494000 | 1.24e+06 | 187000 | 424000 |
| bsAb034 (bispecific antibody, one Fab arm anti-PD-1, two scFv anti-BTN3A; not shown: IgG1 CH1-hinge-CH2-CH3; CH2-CH3 (Fc)) heavy (part 1 of 2): QVQLVQSGVEVKKPGASVKVSCKASGYTFTNYYMYWVRQAPGQGLEWMGGINPSNGGTNFNEKFKNRVTLTTDSSTTTAYMELKSLQFDDTAVYYCARRDYRFDMGFDYWGQGTTVTVSS heavy (part 2 of 2): GGGGSGGGGSGGGGSGGGGSQVQLVQSGAEVKKPGASVKLSCKASGYIFTRYYMYWVKQRPGQGLEWIGEINPNNGGTKFNEKFKNRATLTVDKSISTAYMELSRLRSDDTAVYYCSREDDYDGTPFAMDYWGQGTLVTVSSGGGGSGGGGSGGGGSGGGGSDIQMTQSPSSLSASVGDRVTITCHASQNINVWLSWYQQKPGKAPKLLIYKASNLHTGVPSRFTGSGSGTDFTFTISSLQPEDIATYYCQQGQTYPYTFGQGTKLEIK heavy: GGGGSGGGGSGGGGSGGGGSQVQLVQSGAEVKKPGASVKLSCKASGYIFTRYYMYWVKQRPGQGLEWIGEINPNNGGTKFNEKFKNRATLTVDKSISTAYMELSRLRSDDTAVYYCSREDDYDGTPFAMDYWGQGTLVTVSSGGGGSGGGGSGGGGSGGGGSDIQMTQSPSSLSASVGDRVTITCHASQNINVWLSWYQQKPGKAPKLLIYKASNLHTGVPSRFTGSGSGTDFTFTISSLQPEDIATYYCQQGQTYPYTFGQGTKLEIK light: EIVLTQSPATLSLSPGERATLSCRASKGVSTSGYSYLHWYQQKPGQAPRLLIYLASYLESGVPARFSGSGSGTDFTLTISSLEPEDFAVYYCQHSRDLPLTFGGGTKVEIKRTVAAPSVFIFPPSDEQLKSGTASVVCLLNNFYPREAKVQWKVDNALQSGNSQESVTEQDSKDSTYSLSSTLTLSKADYEKHKVYACEVTHQGLSSPVTKSFNRGEC | 0.167 | 1.9 | 706000 | 1.24e+06 | 210000 | 381000 |
| bsAb037 (bispecific antibody, one Fab arm anti-PD-1, two scFv anti-BTN3A; not shown: IgG1 CH1-hinge-CH2-CH3; CH2-CH3 (Fc)) heavy 1: QVQLVQSGVEVKKPGASVKVSCKASGYTFTNYYMYWVRQAPGQGLEWMGGINPSNGGTNFNEKFKNRVTLTTDSSTTTAYMELKSLQFDDTAVYYCARRDYRFDMGFDYWGQGTTVTVSS heavy 2: DIQMTQSPSSLSASVGDRVTITCHASQNINVWLSWYQQKPGKAPKLLIYKASNLHTGVPSRFTGSGSGTDFTFTISSLQPEDIATYYCQQGQTYPYTFGQGTKLEIKGGGGSGGGGSGGGGSGGGGSQVQLVQSGAEVKKPGASVKLSCKASGYIFTRYYMYWVKQRPGQGLEWIGEINPNNGGTKFNEKFKNRATLTVDKSISTAYMELSRLRSDDTAVYYCSREDDYDGTPFAMDYWGQGTLVTVSSGGGGSGGGGSGGGGSGGGGS light: EIVLTQSPATLSLSPGERATLSCRASKGVSTSGYSYLHWYQQKPGQAPRLLIYLASYLESGVPARFSGSGSGTDFTLTISSLEPEDFAVYYCQHSRDLPLTFGGGTKVEIKRTVAAPSVFIFPPSDEQLKSGTASVVCLLNNFYPREAKVQWKVDNALQSGNSQESVTEQDSKDSTYSLSSTLTLSKADYEKHKVYACEVTHQGLSSPVTKSFNRGECGGGGSGGGGSGGGGSGGGGSQVQLVQSGAEVKKPGASVKLSCKASGYIFTRYYMYWVKQRPGQGLEWIGEINPNNGGTKFNEKFKNRATLTVDKSISTAYMELSRLRSDDTAVYYCSREDDYDGTPFAMDYWGQGTLVTVSSGGGGSGGGGSGGGGSGGGGSDIQMTQSPSSLSASVGDRVTITCHASQNINVWLSWYQQKPGKAPKLLIYKASNLHTGVPSRFTGSGSGTDFTFTISSLQPEDIATYYCQQGQTYPYTFGQGTKLEIK | 0.086 | 1.1 | 585000 | 1.25e+06 | 238000 | 270000 |
